Tested on: Bacillus subtilis DB104 (SP-AmyQ fusion secretion)
Assay: AmyQ secretion efficiency, weighted average sort bin (1 = best secretion, 10 = worst) (bin number (weighted average, 1-10)); higher = lower secretion efficiency
Summary of the method: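 Designed signal peptides were fused to mature AmyQ and expressed from the amyE locus in B. subtilis DB104, and this library was loaded at about 0.3 cells per ~65 nL alginate bead together with fluorescein-starch. After about 13 h of growth at room temperature and nile red staining, occupied beads were split into 10 equally populated bins by green/red fluorescence ratio using large-particle flow cytometry. Amplicons from every bin were Illumina-sequenced. The secretion score is the average bin number weighted by read frequency and normalised to beads per bin, excluding low-abundance sequences.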

Sequence | AmyQ secretion efficiency
MKKLLAAGIIGLLTVEDDEDDSFAAEK | 8.23
MKRLCLWFTVFSPGKALGAVD | 7.52
MKLSVKIAGVLTVAAAAMTAKMYHTAKGN | 6.87
MKTLRSRCYKGILSGVIFFGLKIDAKDI | 6.82
MLKRLIAPMLLSAASLAFFAMSGSAQAAAY | 3.75
MMGIMIFLTSFMLLAMTGQTALAKDV | 3.75
MKIRKILLSSALSFGMLVISAVPALAAGT | 2.24
MNLRKILLSSALSLGMLVSAAPVLARKR | 5.51
MKRIRIPMTLALGAALTIAPLSFASKEEN | 6.64
MPIKKKVMMCLAVTLVFGSMSFPTLTNSGGFPE | 5.65
MRKKLKWLSFLLGFIILLFLFKYQFSFNDS | 6.3
MKNLTKTSLLLAGLCTAAQMVFVTHASAEES | 3.46
MNKKYFVLIVCIIFTSALFPTFSSCTAAQG | 1.18
MLTKRLLTIYIMLLGLIDDDPGAAQAEEK | 9.93
MRKKCSVCLWILVLLLSCKRGKSAYAATS | 6.83
MKNMSKLVVSVTLFFSFLTIGPLAHAQNS | 1.41
MRFTKTVGFLSVLGLAAVFPLTAQAEKA | 2.59
MFKKHTISLLIIFLLALTSAVLAKPIEAHTV | 2.73
MRRKRFTALAVFLLCFMPAAKIEHTQASLL | 5.25
MNLRKILLSSALSLGMLVSAAPWLATSS | 6.1
MTKKAWFLPLVCVLLISGWLAPAASASGQTT | 1.87
MGSRTIWTIILGALLVCCIAVAYTLTKSQAGASSS | 5.01
MKNGGCKLVVSVTLFFSFLTIGPLAHAQNS | 3.26
MKRRRSIFITCLLITLLTMGGMIASPASAAGT | 2.4
MKKRFSLIMMTGLLFGLTSPAFAAPE | 3.06
MKWMCSICCAAVLLAGGAAQVEAV | 2.92

Sequence | AmyQ secretion efficiency
MKKQIKKKKTAVVLGSTLFAGAASAQSI | 7.3
MKKTIMSFVAVAALSTTAFGAHASWKEI | 6.56
MKKVLMAFIICLSLILVVLAAGPSTAKAESV | 1.98
MKNMSCKLVVSVTLFFSFLTIGPLAHYQNS | 6.66
MKRFLIGAGVAAVILSGWFIADHQTHKQEM | 4.69
MKLKKRVSMFLVALTMCGTPAKAVKT | 2.72
MRGKSAVLLSLIMLIAGFLITASFPTVTGPPFSFSFQM | 8.88
MKKQIITATTAVVLGSTLFAGARSAQSI | 3.67
MKNMSCKLRKKKTLFFSFLTIGPLAHAQNS | 6.98
MRPVFPLILSAVLFLSCFFIAGATEASASKR | 3.68
MKSKGSIMACLILFSFTITTFINTETRSAFSN | 8.47
MKSKGSIMACLILFSFTITTFINTETISAFRR | 6.09
MKKKKKRVGLLAGCLAAGGFSYNAFATEN | 6.9
MTLWMTSTLLVVLFTIVTFGLVSPPAALMADKP | 5.58
MKKKLAAGLTASAIVGTTLVVTPAEVATI | 6.56
MGLGKKLSVAVAASFMSLSISLPGVQCAEG | 2.75
MKKKQVMLALTAAAGLGLTALHSAPATKAAPL | 3.15
MKRKKIMIFLTSFMLLAMTGQTALAKDV | 3.1
MKKKKRYSQRFLVALTMCGGLFVTPAKAVKT | 6.94
MLTKRLLTIYIMLLGLIAWFPGAIQAEEK | 2.08
MNLRKILLSSALSLGMLVSAAPVLATSE | 1.92
MSTMIVRMTLPLLIVCLAFSSFSASARAASE | 2.3
MKSRTIWTIILGALLVCCKKKKRTLTKSQAGASSS | 6.52
MYGKIALTLCPAIVGSLLFFTAPASAHVS | 2.26
MRKYTVIASILLSFLSVLFGVAHESKAFPV | 3.89
MRPVFPLILIAVLFLFCFSFGARQTEASASKR | 2.07

Sequence | AmyQ secretion efficiency
MKSKWMSGLLLVAVGFSFTQVMLHAGET | 6.15
MRKKRVKRCVMAASLTLGSLLPAGYASAKED | 3.34
MMKKLFHSTLIVLLFFSFFGVQPLHAKKQ | 2.57
MKKTIMFVAVAALSTTAFGAHASAKEI | 3
MSTKQVMLALTAAAGLGLTALHSAPAAKAAPL | 2.43
MKRLFISSAVLLSILLPSGQAHAQSA | 2.34
MKRTWNVCLTALLSVLLVAGSVRRRRKRKHAEAKKP | 8.2
MKVCQKSIVRFLVSLIIGTFVISVPFMANAQSK | 2.23
MLCVMMLLFSAIASTPVSAQAKDQ | 5.3
MRKTIFAFLTGLMMFKKRTAASASPD | 6.93
MKKLILAFILSAAAAVGLFTFGGVQQASAKEL | 4
MKKLLAAGIIGLLTVRRRKKKSFAAEK | 7.21
MRNLTKTSLLLAGLCTAAQMVFVTHWSAEES | 8.27
MRKKCSTCRWILVLLLSCLSGKSAYAATS | 5.49
MKLRKVLTGSVLSLGLLVSASPAFAEEE | 2.06
MKLWMRKTLVVLFTIVTFGLVSPPAAQMADKP | 1.81
MPYLKRVLLLLVTGLFMSLFAVTATASLQTG | 1.81
MKQFAITLSVLCALILLVPTLLVIPFQHNKMAGASV | 5.07
MRMLWRSLALCGLALTLAPCPQAAEP | 6.73
MKSKGSIMACLILFSFTITSTVSATTFINTETISAFSN | 6.02
MKSCKQLIVCSLAAILLLIPSVSFAAPR | 1.96
MLKKIALTLCPAIVGSLLFFTAPPSAHVS | 6.86
MSLITFSLIITSAIIIAIIAAVIVIAALITFNVRNASPG | 7.04
MLCVMMLLFSAIASFPVSAQRKDQ | 6.75
MRKWYFILLAGVLTSVILAFVYDKGKANEE | 2.67
MGLGKKLSVAVAASFMSLSISLPGIQAAEG | 1.56

Sequence | AmyQ secretion efficiency
MKSKGSIMACKKKKSFTITTFINTETISAFSN | 7.29
MSTIWIGMLAAAVLLLMVPKVSLADAA | 6.21
MRGKSAVLLSLIMLIAGFLIYFSFQM | 8.11
MKKGIIRFLLVSFVLFFALSTGITGVQFAPA | 7.18
MKNMSCKLVVSVTLFFSFLTIGPLAPVGVSPVAHAQNS | 1.75
MKLSVKIAGVLTVAAAAMTAKMYCTAKGN | 7.19
MAIIIAIIAAVIVIAALITFEEDERNASPG | 5.02
MFKFKKNFLVGLSAALMSIKQFSATASAAST | 5.73
MRKKTKNRLISSVLSTVVISSLLFPGAAGASSP | 1.67
MTMLRKIIGWILLLCIIPSKQQSSIASGKEV | 6.84
MKKWKQTQQSGIAAAISIFVYVSTGSEK | 7.55
MKKRLIAPMLLSAASLAFFAMSGSRQAAAY | 6.03
MPYLKRVLLLLVTGLFMSLFAVTATQSAQTG | 3.84
MLKRTSFVSSLFISSAVLLSILLPSGQAHARKR | 3.12
MKNMSCKLVVSVTLFFSFLTIGPLNHAQNS | 5.54
MKRTWNVCLTALLSVPFHAEAKKP | 6.8
MTKKAWFLPLVCVLLISGWLAPAASASAQTD | 1.97
MKWMCSICCAAVLLAGGAIQAEAV | 2.58
MGGVFPLILSAVLFLSCFFGARQTEASASKR | 4.03
MKRMIRTLPLLIVCLAFSSFSASARAASE | 2.17
MRPVFPGKGQYVLFLSCFFGARQTEASASKR | 6.9
MAIIIAIIAAVIVIAALITFNVMNASPG | 6.23
MMKKLFHSTLRRRRFFSFFGVQPIHAKKQ | 7.67
MKRLRRKRKKGIMLLTFAPSAFAKQD | 7.07
MKSKGSIMACLILFSFTITTFINTETISYFSN | 7.41
MSMMSKLSLGVASAALGLALVGGGTWAAFN | 5.67

Sequence | AmyQ secretion efficiency
MRMLWRSSSQCGLALTLAPCAQAAEP | 8.18
MKQFAITLSVLCALILLVPTLLVIPFQHNKEAMASV | 6.87
MKKIWIGMLAAAVLLLMVPKVSLAAAD | 5.09
MKSKGSIMACLILFSFTTFINTETISAFSN | 4.68
MKMKSGMEQAVSVLLLLSRLPVQASLRRK | 7.08
MKLKKRVSMGLVALTMCGGLFVTPAKAVKT | 2.55
MTKLKMLSMLTVMIASLFIFSSQILAVQY | 6.11
MTKKAWFLPLVCVLLISGWLAPAASISAQTT | 2.33
MKRFILVLSFLSIIVAYPIQVNASPM | 3.06
MKLSVKIAGVLTVAAAAMTAKMYRTAKGN | 7.39
MKKRLIAPMLLSAASLAFFAMSGSAQQAAY | 8.53
MPYLKRVLLLLVTGLFMSLFAVTATASAQTD | 1.91
MKRLLVSLRVWMVFLMNWVTPDRKTAAAAVY | 6.49
MRKNRIKRKKVLSLGLLSFMVTPVSAASK | 7.91
MKKRKVMLATALFLGLTPAGANAADL | 4.31
MMMLRKIIGWILLLCIIPLFAFTVIASGKEV | 5.45
MKRKLKKSLAISALSLGLLVSAPTASFAAES | 3.49
MTMLRKIIGWILLLCIIPLFAFTVIASDKEV | 7.16
MKSKGSIMACKRLFSFTITTFINTETISAFSN | 6.73
MKKWIYTYKVLSIAGIGGFSVHAASS | 6.93
MGLGKKLSVAVAASFMSLSISLRKKVQAAEG | 8.03
MRKYTFVIASILLSFLSVLSGGHHESKAFPV | 5.44
MLKKKWVGLLAGCLAAGGFSYNAFATEN | 4.85

— the supplement of paper PMC9942255
